In patent publication US20210284749A1 (ABL BIO, published 2021):

Assays:
[1] = target: T1, human BCMA expressed on cell surface (H929, OPM-2, CHOK1-hBCMA cells) (human, UniProt Q02223 1-184); experiment: FACS on H929 cells
T1 construct: also called cell-surface BCMA; BCMA on cell surface
T1 sequence: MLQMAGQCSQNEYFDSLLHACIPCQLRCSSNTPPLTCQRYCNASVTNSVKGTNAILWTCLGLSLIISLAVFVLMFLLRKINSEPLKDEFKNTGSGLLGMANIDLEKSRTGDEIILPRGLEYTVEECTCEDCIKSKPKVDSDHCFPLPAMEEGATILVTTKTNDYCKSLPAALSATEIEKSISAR

[2] = target: T2, recombinant human BCMA (ELISA antigen, construct not specified) (human, UniProt Q02223 1-54); experiment: ELISA on recombinant BCMA
T2 construct: Fc 1-51; Fc/His 1-51; Fc 4-48) was coated in these ELISAs; also called recombinant BCMA; recombinant protein
T2 sequence: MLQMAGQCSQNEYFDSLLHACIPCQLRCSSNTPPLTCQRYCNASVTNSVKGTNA

Binder	MFI [1]	EC50 [2] [nM]
mutant antibody 5D5 LM1 (antibody, V domains shown, Light chain CDR mutant of 5D5 (IgG1); heavy chain as 5D5) VH: EVQLLESGGGLVQPGGSLRLSCAASGFTFSDYGLSWVRQAPGKGLEWVSLIDSSGSSTFYADSVKGRFTISRDNSKNTLYLQMNSLRAEDTAVYYCAKEHGLFDSWGQGTLVTVSS VL: EIVLTQSPGTLSLSPGERATLSCKASQDIDNDINWYQQKPGQAPRLLIYDASLRATGIPDRFSGSGSGTDFTLTISRLEPEDFAVYYCQQSLRTPITFGQGTKLEIKR	32	0.0939
mutant antibody 5A6 LM1 (antibody, V domains shown, Light chain CDR mutant of 5A6 (IgG1); heavy chain as 5A6) VH: EVQLLESGGGLVQPGGSLRLSCAASGFTFSNYGVHWVRQAPGKGLEWVSYISYSGGTYYNPSLKSRFTISRDNSKNTLYLQMNSLRAEDTAVYYCARDSDDFGFDYWGQGTLVTVSS VL: QSVLTQPPSASGTPGQRVTISCQGESLRSYYVNWYQQLPGTAPKLLIYDHSKRPTGVPDRFSGSKSGTSASLAISGLRSEDEADYYCQSYDSSTVVFGGGTKLTVLG	83.4	0.0818
mutant antibody 5A6 LM7 (antibody, V domains shown, Light chain CDR mutant of 5A6 (IgG1); heavy chain as 5A6) VH: EVQLLESGGGLVQPGGSLRLSCAASGFTFSNYGVHWVRQAPGKGLEWVSYISYSGGTYYNPSLKSRFTISRDNSKNTLYLQMNSLRAEDTAVYYCARDSDDFGFDYWGQGTLVTVSS VL: QSVLTQPPSASGTPGQRVTISCQGDALRSYYVNWYQQLPGTAPKLLIYDHSKRPTGVPDRFSGSKSGTSASLAISGLRSEDEADYYCQSYESSTVVFGGGTKLTVLG	71.1	0.105
mutant antibody 5A6 LM4 (antibody, V domains shown, Light chain CDR mutant of 5A6 (IgG1); heavy chain as 5A6) VH: EVQLLESGGGLVQPGGSLRLSCAASGFTFSNYGVHWVRQAPGKGLEWVSYISYSGGTYYNPSLKSRFTISRDNSKNTLYLQMNSLRAEDTAVYYCARDSDDFGFDYWGQGTLVTVSS VL: QSVLTQPPSASGTPGQRVTISCQGDSLRSYYVNWYQQLPGTAPKLLIYDHSKRPTGVPDRFSGSKSGTSASLAISGLRSEDEADYYCQSYDASTVVFGGGTKLTVLG	77.1	0.0823
mutant antibody 5A6 LM2 (antibody, V domains shown, Light chain CDR mutant of 5A6 (IgG1); heavy chain as 5A6) VH: EVQLLESGGGLVQPGGSLRLSCAASGFTFSNYGVHWVRQAPGKGLEWVSYISYSGGTYYNPSLKSRFTISRDNSKNTLYLQMNSLRAEDTAVYYCARDSDDFGFDYWGQGTLVTVSS VL: QSVLTQPPSASGTPGQRVTISCQGDALRSYYVNWYQQLPGTAPKLLIYDHSKRPTGVPDRFSGSKSGTSASLAISGLRSEDEADYYCQSYDSSTVVFGGGTKLTVLG	66.7	0.0509
mutant antibody 5A6 LM5 (antibody, V domains shown, Light chain CDR mutant of 5A6 (IgG1); heavy chain as 5A6) VH: EVQLLESGGGLVQPGGSLRLSCAASGFTFSNYGVHWVRQAPGKGLEWVSYISYSGGTYYNPSLKSRFTISRDNSKNTLYLQMNSLRAEDTAVYYCARDSDDFGFDYWGQGTLVTVSS VL: QSVLTQPPSASGTPGQRVTISCQGESLRSYYVNWYQQLPGTAPKLLIYDHSKRPTGVPDRFSGSKSGTSASLAISGLRSEDEADYYCQSYESSTVVFGGGTKLTVLG	81.4	0.103
mutant antibody 5A6 LM8 (antibody, V domains shown, Light chain CDR mutant of 5A6 (IgG1); heavy chain as 5A6) VH: EVQLLESGGGLVQPGGSLRLSCAASGFTFSNYGVHWVRQAPGKGLEWVSYISYSGGTYYNPSLKSRFTISRDNSKNTLYLQMNSLRAEDTAVYYCARDSDDFGFDYWGQGTLVTVSS VL: QSVLTQPPSASGTPGQRVTISCQGDALRSYYVNWYQQLPGTAPKLLIYDHSKRPTGVPDRFSGSKSGTSASLAISGLRSEDEADYYCQSYDASTVVFGGGTKLTVLG	68.6	0.068
mutant antibody 5A6 LM3 (antibody, V domains shown, Light chain CDR mutant of 5A6 (IgG1); heavy chain as 5A6) VH: EVQLLESGGGLVQPGGSLRLSCAASGFTFSNYGVHWVRQAPGKGLEWVSYISYSGGTYYNPSLKSRFTISRDNSKNTLYLQMNSLRAEDTAVYYCARDSDDFGFDYWGQGTLVTVSS VL: QSVLTQPPSASGTPGQRVTISCQGDSLRSYYVNWYQQLPGTAPKLLIYDHSKRPTGVPDRFSGSKSGTSASLAISGLRSEDEADYYCQSYESSTVVFGGGTKLTVLG	84.6	0.133
